Columns and labels:
Experiment in all cases: Ni-NTA magnetic bead pull-down; EMSA: 50 mM Tris-HCl pH 7.9, 300 mM KOAc, 5 mM MgCl2, 16% glycerol, 10 min 37 C; bead pull-down: 82.5 ng 5e RNA, 0.056-1.8 uM protein, eluted with 250 mM imidazole (binding buffer not given, as in ref 16)
[1] = target: T1, 72e (human, UniProt O76094 531-617); details: protein: recombinant; tags: N-terminal His6; hairpin with 11-nt 5e internal motif (K-turn)
T1 sequence: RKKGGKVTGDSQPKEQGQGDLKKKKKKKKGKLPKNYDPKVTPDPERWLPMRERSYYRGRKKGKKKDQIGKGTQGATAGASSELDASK

[2] = target: T2, 72h 583-RS-584 to AA (human, UniProt O76094 531-590, R583A;S584A); details: protein: recombinant; tags: His6; hairpin with 11-nt 5e internal motif (K-turn)
T2 sequence: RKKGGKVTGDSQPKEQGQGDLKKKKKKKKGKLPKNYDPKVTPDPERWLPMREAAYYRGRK

[3] = target: T3, 72h (human, UniProt O76094 531-590); details: protein: recombinant; tags: His6; hairpin with 11-nt 5e internal motif (K-turn)
T3 sequence: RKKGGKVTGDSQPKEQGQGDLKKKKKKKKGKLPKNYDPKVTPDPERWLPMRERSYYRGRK

[4] = target: T4, 72h 577-WL-578 to AA (human, UniProt O76094 531-590, W577A;L578A); details: protein: recombinant; tags: His6; hairpin with 11-nt 5e internal motif (K-turn)
T4 sequence: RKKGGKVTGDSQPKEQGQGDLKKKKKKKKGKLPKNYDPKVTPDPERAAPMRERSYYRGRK

[5] = target: T5, 72f (human, UniProt O76094 531-587); details: protein: recombinant; tags: N-terminal His6; hairpin with 11-nt 5e internal motif (K-turn)
T5 sequence: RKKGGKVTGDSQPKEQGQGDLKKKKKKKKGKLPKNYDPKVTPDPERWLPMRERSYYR

[6] = target: T6, 72g (human, UniProt O76094 531-585); details: protein: recombinant; tags: N-terminal His6; hairpin with 11-nt 5e internal motif (K-turn)
T6 sequence: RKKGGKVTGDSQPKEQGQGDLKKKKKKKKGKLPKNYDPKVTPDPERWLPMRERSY

[7] = target: T7, 72j (human, UniProt O76094 541-590); details: protein: recombinant; tags: His6; hairpin with 11-nt 5e internal motif (K-turn)
T7 chain: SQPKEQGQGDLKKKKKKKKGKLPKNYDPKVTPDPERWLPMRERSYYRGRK

[8] = target: T8, 72h 587-RG-588 to AA (human, UniProt O76094 531-590, R587A;G588A); details: protein: recombinant; tags: His6; hairpin with 11-nt 5e internal motif (K-turn)
T8 sequence: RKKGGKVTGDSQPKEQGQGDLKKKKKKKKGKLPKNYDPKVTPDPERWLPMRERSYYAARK

[9] = target: T9, 72h 589-RK-590 to AA (human, UniProt O76094 531-590, R589A;K590A); details: protein: recombinant; tags: His6; hairpin with 11-nt 5e internal motif (K-turn)
T9 sequence: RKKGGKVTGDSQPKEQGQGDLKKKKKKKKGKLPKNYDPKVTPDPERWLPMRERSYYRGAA

[10] = target: T10, 72k (human, UniProt O76094 545-590); details: protein: recombinant; tags: His6; hairpin with 11-nt 5e internal motif (K-turn)
T10 chain: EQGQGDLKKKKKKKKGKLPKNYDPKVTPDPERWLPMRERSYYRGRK

[11] = target: T11, 72h 585-YY-586 to AA (human, UniProt O76094 531-590, Y585A;Y586A); details: protein: recombinant; tags: His6; hairpin with 11-nt 5e internal motif (K-turn)
T11 sequence: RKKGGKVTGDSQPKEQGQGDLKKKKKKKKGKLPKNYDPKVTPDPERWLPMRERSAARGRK

[12] = target: T12, 72h M580A (human, UniProt O76094 531-590, M580A); details: protein: recombinant; tags: His6; hairpin with 11-nt 5e internal motif (K-turn)
T12 sequence: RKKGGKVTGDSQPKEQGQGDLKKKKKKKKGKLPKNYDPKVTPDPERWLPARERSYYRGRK

[13] = target: T13, 72h 579-PM-580 to AA (human, UniProt O76094 531-590, P579A;M580A); details: protein: recombinant; tags: His6; hairpin with 11-nt 5e internal motif (K-turn)
T13 sequence: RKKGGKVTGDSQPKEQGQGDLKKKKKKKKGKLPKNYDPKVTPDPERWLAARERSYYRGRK

[14] = target: T14, 72h 581-RE-582 to AA (human, UniProt O76094 531-590, R581A;E582A); details: protein: recombinant; tags: His6; hairpin with 11-nt 5e internal motif (K-turn)
T14 sequence: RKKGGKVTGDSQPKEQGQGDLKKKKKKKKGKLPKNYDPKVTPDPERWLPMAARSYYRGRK

[15] = target: T15, 72h P579A (human, UniProt O76094 531-590, P579A); details: protein: recombinant; tags: His6; hairpin with 11-nt 5e internal motif (K-turn)
T15 sequence: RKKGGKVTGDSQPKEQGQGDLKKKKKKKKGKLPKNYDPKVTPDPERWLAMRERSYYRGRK

[16] = target: T16, 72h del 555-KK-556 (human, UniProt O76094 531-590, del555-556); details: protein: recombinant; tags: His6; hairpin with 11-nt 5e internal motif (K-turn)
T16 sequence: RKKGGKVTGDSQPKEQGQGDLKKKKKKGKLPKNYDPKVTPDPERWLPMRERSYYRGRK

GGUCCGGGUGUCCGCACUAGGGAGCUAGUGGGAUCGCGCCUGGAUC (structured_RNA) [5e SRP RNA]
binding result [1]: binds | binding result [2]: no binding | binding result [3]: binds | binding result [4]: no binding | binding result [5]: binds | binding result [6]: no binding | binding result [7]: binds | binding result [8]: binds | binding result [9]: binds | binding result [10]: binds | binding signal [11]: 60 ± 3 % of wild-type binding | binding signal [12]: 100 ± 4 % of wild-type binding | binding signal [13]: 14 ± 9 % of wild-type binding | binding signal [14]: 69 ± 14 % of wild-type binding | binding signal [15]: 26 ± 1 % of wild-type binding | binding signal [16]: 46 ± 12 % of wild-type binding
